pKd: −log10 of the molar value.
Columns and labels:
[1] = tested on: tTALE-eGFP (truncated TALE, 7-mer TGTCTGT repeat domain, fused to eGFP) (artificial construct (from TALEN plasmid RHD_Exon4_TALEN_L)); assay: FRET; conditions: FRET: TE pH 8.0, 100 nM dsDNA, 10-100 nM tTALE-eGFP for Kd; NaCl series 0-200 mM at 30 nM protein; excitation 488 nm, emission 631 nm; temperature not stated
[2] = tested on: tTALE-eGFP (truncated TALE, 7-mer TGTCTGT repeat domain, fused to eGFP) (artificial construct (from TALEN plasmid RHD_Exon4_TALEN_L)); assay: single-molecule fluorescence (surface-immobilized DNA in flow cell); conditions: FRET: TE pH 8.0, 100 nM dsDNA, 10-100 nM tTALE-eGFP for Kd; NaCl series 0-200 mM at 30 nM protein; excitation 488 nm, emission 631 nm; temperature not stated

Substance | pKd [1] | K half [2] [nM]
TGTCTGTATG (double strand) [target DNA] | 7.57 | –
lambda DNA | – | 22

Reference: PMC6868158
